Sequences and labels used below:
B1: Protein S100-G, P02633 (parent)
chain: MSAKKSPEELKGIFEKYAAKEGDPNQLSKEELKLLLQTEFPSLLKGPSTLDELFEELDKNGDGEVSFEEFQVLVKKISQ

Variants of B1 are the subject of this data set. The following applies: Bos taurus; pH 7.1; 25 °C; Urea; CD; PIPES 20 mM; reversible: yes; structure 1IGV; whole UniProt chain shown.

E21Q: the “ddG of mutation (higher = less stable)” value is -0.48 kcal/mol, the denaturant m value is 0.91 kcal/mol/M, the “denaturant midpoint (higher = more stable)” value stood at 5.6 M and the unfolding free energy came to 5.26 kcal/mol.
The like results for P24G were, in that order, 1.19 kcal/mol, 0.79 kcal/mol/M, 4.7 M and 3.59 kcal/mol.
Regarding Y17F, the “ddG of mutation (higher = less stable)” value amounted to 1.19 kcal/mol, the denaturant m value was 0.89 kcal/mol/M, the “denaturant midpoint (higher = more stable)” value was 4.1 M and the unfolding free energy is 3.59 kcal/mol.

(Values after FireProtDB (doi:10.1111/j.1432-1033.1988.tb14214.x).)
